{"source": "patent US20010041790A1", "molecular_target": "35S-labeled hamster PrPsen, glycophosphoinositol-negative form (35S-HaPrPsen) (Syrian golden hamster) (UniProt P04273)", "assay": "cell-based or functional assay", "data": [{"substance": "HaP109-141(del113-116) (peptide)", "values": [{"measurement": "IC50 of the conversion reaction", "value": 70, "unit": "µM"}]}]}
